According to patent publication US20070027089A1:
Where no end group is shown, it is not given here. [ ]: non-standard residue; d: D form. Ahx = NCCCCCC(=O)O

Molecular target: amyloid precursor protein APP695 in HEK 293-APP cells (human), P05067
Assay: cell-based or functional assay

Chain of amyloid precursor protein APP695 in HEK 293-APP cells (human), P05067 (P05067 18-770): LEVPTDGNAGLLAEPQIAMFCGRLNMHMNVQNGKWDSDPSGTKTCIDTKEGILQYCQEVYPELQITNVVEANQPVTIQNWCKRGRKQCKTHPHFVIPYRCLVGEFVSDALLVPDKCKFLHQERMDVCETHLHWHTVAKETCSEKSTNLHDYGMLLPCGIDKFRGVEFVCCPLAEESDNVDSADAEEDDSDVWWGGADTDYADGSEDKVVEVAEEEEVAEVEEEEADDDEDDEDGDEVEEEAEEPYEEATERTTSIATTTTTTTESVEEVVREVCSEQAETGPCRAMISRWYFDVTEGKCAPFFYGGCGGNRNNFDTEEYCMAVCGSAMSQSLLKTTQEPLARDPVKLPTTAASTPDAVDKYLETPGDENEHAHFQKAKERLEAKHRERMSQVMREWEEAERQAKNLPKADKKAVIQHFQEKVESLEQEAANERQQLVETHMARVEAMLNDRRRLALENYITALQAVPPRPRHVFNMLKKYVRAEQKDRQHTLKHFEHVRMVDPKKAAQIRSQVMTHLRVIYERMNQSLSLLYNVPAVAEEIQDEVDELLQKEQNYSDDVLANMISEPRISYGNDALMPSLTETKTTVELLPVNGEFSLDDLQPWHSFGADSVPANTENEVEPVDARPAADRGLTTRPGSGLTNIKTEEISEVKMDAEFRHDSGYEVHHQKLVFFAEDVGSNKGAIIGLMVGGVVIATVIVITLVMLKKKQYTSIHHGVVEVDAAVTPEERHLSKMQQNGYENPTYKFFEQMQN

B1: 6-aminohexanoic acid-c-Sub M ΔN3C1 (NH2-(CH2)5-CO-Cys-Ile-Gln-Ile-His-Phe-NH2) (peptide)
peptide: [Ahx]CIQIHF-NH2
modifications: N-terminus assumed
SMILES: CC[C@H](C)[C@H](NC(=O)[C@H](CCC(N)=O)NC(=O)[C@@H](NC(=O)[C@H](CS)NC(=O)CCCCCN)[C@@H](C)CC)C(=O)N[C@@H](Cc1c[nH]cn1)C(=O)N[C@@H](Cc1ccccc1)C(N)=O
reduction of Aβ released from HEK293-APP cells (sandwich ELISA) at 6.25 µM peptide: 70%
